For this assay, the target named is human HER4 expressed on HEK293 cells (human) (UniProt Q15303). Description: flow cytometry, HEK293 HER4 overexpressing cells, PE-A B2-A channel.
Sequence of human HER4 expressed on HEK293 cells (human) (Q15303 26-1308): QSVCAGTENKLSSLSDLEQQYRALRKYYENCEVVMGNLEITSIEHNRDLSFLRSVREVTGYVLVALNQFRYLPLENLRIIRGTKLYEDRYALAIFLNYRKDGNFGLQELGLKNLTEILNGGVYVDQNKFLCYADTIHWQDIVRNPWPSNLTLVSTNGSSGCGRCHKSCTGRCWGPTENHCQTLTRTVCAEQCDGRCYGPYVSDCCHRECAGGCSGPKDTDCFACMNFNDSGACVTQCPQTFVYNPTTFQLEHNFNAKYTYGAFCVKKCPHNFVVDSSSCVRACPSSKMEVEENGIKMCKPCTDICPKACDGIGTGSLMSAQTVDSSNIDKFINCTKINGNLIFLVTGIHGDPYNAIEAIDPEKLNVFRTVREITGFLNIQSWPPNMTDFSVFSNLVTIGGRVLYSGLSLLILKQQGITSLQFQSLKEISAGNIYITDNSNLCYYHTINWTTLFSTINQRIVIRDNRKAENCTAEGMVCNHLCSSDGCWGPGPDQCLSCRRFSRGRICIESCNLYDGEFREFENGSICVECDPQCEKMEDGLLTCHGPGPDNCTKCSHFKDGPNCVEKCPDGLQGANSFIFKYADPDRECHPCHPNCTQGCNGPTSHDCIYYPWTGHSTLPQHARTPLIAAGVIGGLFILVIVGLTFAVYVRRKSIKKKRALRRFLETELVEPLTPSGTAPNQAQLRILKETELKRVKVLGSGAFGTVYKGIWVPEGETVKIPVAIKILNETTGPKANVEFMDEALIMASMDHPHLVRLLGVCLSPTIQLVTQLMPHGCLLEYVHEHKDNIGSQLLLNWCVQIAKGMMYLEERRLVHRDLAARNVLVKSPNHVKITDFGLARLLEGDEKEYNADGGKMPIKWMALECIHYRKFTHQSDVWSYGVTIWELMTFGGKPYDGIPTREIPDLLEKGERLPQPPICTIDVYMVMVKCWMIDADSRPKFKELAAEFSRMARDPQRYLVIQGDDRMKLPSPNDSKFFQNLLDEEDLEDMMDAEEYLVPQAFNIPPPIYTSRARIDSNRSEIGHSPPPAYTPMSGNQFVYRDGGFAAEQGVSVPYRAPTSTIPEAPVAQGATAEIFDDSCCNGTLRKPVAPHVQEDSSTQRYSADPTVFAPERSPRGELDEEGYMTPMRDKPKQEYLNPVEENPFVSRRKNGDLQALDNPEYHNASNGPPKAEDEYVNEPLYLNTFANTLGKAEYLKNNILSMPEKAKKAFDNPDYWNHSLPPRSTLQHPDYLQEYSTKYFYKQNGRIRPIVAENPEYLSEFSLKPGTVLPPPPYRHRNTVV

B1: MM-121 (antibody, INN chains, looked up, human IgG2, V domains shown)
VH: EVQLLESGGGLVQPGGSLRLSCAASGFTFSHYVMAWVRQAPGKGLEWVSSISSSGGWTLYADSVKGRFTISRDNSKNTLYLQMNSLRAEDTAVYYCTRGLKMATIFDYWGQGTLVTVSS
VL: QSALTQPASVSGSPGQSITISCTGTSSDVGSYNVVSWYQQHPGKAPKLIIYEVSQRPSGVSNRFSGSKSGNTASLTISGLQTEDEADYYCCSYAGSSIFVIFGGGTKVTVL
modifications: IgG2/kappa
In the case of B1, the % Positive for HER4 amounted to 8.73%.
